Measurements: paper PMC4743851
Each block holds one substance with its values, some of them ahead of it.

Legend:
[1] = biological target: GST-Syn-1A (cytoplasmic domain a.a. 1–265) (UniProt P32851); assay: pull-down; GST-Syn-1A (1-265) or GST-Syn-3 (1-263) on glutathione agarose beads incubated with lysate of HEK293 cells transfected with Cav1.3 or Cav2.3, 4°C, 2 h; washed with 20 mM HEPES pH 7.4, 150 mM KOAc, 1 mM EDTA, 1 mM MgCl2, 5% glycerol, 0.1% Triton X-100; blots quantified as percent recovery
[2] = biological target: GST-Syn-3 (cytoplasmic domain a.a. 1–263) (UniProt Q08849); assay: as above
[3] = biological target: Syn-3 expressed in HEK293 cells (UniProt Q08849); assay: co-IP; HEK293 cells co-transfected with Cav1.3 or Cav2.3 and Syn-1A or Syn-3; IP with anti-Syn-1A or anti-Syn-3 antibody; blots quantified as percent recovery of total lysate input
[4] = biological target: Syn-1A expressed in HEK293 cells (UniProt P32851); assay: as above
[5] = biological target: Syntaxin-3 (endogenous, INS-1 832/13 cells) (rat (endogenous in INS-1 832/13)) (UniProt Q08849); assay: co-IP; IP with 2 μg Syn-3 or Syn-1A antibody from 1 mg INS-1 832/13 lysate; cells at basal 0.8 mM glucose or stimulated with 16.7 mM glucose plus 10 nM GLP-1 for 30 min; blots quantified as percent recovery of total lysate input
[6] = biological target: Syntaxin-1A (endogenous, INS-1 832/13 cells) (rat (endogenous in INS-1 832/13)) (UniProt P32851); assay: as above

Chain of Syntaxin-3 (endogenous, INS-1 832/13 cells) (rat (endogenous in INS-1 832/13)) (Q08849 whole entry): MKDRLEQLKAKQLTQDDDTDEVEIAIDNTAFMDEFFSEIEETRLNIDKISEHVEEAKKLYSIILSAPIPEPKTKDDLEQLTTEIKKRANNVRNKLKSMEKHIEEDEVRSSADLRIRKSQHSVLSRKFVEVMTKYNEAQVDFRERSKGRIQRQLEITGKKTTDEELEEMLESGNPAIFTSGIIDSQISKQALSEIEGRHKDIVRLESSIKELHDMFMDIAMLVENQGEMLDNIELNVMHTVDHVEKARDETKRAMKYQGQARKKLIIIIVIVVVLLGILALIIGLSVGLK
Chain of Cav1.3 alpha1 subunit expressed in HEK293 cells, P27732 1-2203 (natural protein) (P27732 whole entry): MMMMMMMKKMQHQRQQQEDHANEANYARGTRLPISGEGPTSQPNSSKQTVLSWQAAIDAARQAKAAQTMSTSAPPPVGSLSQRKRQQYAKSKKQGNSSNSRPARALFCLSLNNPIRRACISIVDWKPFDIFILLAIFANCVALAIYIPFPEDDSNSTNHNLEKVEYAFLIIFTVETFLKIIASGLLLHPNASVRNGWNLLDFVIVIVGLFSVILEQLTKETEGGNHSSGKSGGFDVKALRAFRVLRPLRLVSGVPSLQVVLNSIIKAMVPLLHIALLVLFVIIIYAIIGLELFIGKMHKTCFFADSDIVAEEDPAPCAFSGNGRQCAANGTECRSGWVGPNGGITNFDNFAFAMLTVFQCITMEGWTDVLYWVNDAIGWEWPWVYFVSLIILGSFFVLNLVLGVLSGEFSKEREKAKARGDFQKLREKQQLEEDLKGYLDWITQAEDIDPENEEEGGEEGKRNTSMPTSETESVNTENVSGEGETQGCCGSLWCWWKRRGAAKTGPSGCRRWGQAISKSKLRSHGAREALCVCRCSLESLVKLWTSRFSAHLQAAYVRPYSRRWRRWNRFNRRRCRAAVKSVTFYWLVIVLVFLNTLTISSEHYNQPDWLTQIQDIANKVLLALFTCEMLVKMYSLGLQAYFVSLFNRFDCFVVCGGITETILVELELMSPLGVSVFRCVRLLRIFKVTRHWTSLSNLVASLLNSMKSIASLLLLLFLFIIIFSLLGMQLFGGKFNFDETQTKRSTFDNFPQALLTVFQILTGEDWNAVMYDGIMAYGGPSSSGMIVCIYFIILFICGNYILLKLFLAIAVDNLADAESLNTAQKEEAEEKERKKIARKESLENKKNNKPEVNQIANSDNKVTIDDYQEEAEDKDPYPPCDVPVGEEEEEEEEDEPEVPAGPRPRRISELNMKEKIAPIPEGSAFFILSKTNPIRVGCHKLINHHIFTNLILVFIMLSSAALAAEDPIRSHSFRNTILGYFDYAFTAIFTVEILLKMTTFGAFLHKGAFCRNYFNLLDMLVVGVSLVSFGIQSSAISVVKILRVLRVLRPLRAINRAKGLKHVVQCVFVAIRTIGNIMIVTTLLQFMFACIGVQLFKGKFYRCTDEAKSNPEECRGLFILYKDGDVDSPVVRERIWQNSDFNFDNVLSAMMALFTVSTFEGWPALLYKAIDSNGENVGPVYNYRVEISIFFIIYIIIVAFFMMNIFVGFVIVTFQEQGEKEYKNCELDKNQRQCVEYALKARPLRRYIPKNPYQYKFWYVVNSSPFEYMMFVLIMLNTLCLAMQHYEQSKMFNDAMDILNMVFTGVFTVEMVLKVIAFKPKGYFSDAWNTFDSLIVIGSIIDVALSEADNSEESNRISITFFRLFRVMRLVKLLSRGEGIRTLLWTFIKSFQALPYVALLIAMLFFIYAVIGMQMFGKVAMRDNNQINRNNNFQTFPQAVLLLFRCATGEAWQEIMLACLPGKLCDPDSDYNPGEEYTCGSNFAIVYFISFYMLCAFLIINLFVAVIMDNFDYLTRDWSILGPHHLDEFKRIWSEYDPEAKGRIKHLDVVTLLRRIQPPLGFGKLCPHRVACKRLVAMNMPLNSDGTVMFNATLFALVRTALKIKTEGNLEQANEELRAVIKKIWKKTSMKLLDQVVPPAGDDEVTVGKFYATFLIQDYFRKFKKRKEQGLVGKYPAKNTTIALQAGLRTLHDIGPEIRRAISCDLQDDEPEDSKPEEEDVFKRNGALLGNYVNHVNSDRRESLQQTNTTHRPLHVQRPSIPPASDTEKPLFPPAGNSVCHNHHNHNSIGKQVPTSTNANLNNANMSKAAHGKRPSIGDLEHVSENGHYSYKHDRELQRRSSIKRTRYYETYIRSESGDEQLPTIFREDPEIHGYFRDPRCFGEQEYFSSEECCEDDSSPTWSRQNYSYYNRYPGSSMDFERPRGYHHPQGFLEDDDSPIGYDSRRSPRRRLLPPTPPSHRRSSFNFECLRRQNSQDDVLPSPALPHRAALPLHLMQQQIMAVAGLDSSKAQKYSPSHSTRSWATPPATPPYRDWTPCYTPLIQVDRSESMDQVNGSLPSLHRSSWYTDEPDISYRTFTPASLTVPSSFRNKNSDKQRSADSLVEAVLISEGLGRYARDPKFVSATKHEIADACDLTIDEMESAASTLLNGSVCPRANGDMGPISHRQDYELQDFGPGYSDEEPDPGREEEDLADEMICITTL
Chain of Cav1.3 alpha1 pore-forming subunit (endogenous, INS-1 832/13 cells), P27732 1-2203 (natural protein) (P27732 whole entry): as above
Chain of Cav2.3 alpha1 subunit expressed in HEK293 cells, Q07652 1-2222 (natural protein) (Q07652 whole entry): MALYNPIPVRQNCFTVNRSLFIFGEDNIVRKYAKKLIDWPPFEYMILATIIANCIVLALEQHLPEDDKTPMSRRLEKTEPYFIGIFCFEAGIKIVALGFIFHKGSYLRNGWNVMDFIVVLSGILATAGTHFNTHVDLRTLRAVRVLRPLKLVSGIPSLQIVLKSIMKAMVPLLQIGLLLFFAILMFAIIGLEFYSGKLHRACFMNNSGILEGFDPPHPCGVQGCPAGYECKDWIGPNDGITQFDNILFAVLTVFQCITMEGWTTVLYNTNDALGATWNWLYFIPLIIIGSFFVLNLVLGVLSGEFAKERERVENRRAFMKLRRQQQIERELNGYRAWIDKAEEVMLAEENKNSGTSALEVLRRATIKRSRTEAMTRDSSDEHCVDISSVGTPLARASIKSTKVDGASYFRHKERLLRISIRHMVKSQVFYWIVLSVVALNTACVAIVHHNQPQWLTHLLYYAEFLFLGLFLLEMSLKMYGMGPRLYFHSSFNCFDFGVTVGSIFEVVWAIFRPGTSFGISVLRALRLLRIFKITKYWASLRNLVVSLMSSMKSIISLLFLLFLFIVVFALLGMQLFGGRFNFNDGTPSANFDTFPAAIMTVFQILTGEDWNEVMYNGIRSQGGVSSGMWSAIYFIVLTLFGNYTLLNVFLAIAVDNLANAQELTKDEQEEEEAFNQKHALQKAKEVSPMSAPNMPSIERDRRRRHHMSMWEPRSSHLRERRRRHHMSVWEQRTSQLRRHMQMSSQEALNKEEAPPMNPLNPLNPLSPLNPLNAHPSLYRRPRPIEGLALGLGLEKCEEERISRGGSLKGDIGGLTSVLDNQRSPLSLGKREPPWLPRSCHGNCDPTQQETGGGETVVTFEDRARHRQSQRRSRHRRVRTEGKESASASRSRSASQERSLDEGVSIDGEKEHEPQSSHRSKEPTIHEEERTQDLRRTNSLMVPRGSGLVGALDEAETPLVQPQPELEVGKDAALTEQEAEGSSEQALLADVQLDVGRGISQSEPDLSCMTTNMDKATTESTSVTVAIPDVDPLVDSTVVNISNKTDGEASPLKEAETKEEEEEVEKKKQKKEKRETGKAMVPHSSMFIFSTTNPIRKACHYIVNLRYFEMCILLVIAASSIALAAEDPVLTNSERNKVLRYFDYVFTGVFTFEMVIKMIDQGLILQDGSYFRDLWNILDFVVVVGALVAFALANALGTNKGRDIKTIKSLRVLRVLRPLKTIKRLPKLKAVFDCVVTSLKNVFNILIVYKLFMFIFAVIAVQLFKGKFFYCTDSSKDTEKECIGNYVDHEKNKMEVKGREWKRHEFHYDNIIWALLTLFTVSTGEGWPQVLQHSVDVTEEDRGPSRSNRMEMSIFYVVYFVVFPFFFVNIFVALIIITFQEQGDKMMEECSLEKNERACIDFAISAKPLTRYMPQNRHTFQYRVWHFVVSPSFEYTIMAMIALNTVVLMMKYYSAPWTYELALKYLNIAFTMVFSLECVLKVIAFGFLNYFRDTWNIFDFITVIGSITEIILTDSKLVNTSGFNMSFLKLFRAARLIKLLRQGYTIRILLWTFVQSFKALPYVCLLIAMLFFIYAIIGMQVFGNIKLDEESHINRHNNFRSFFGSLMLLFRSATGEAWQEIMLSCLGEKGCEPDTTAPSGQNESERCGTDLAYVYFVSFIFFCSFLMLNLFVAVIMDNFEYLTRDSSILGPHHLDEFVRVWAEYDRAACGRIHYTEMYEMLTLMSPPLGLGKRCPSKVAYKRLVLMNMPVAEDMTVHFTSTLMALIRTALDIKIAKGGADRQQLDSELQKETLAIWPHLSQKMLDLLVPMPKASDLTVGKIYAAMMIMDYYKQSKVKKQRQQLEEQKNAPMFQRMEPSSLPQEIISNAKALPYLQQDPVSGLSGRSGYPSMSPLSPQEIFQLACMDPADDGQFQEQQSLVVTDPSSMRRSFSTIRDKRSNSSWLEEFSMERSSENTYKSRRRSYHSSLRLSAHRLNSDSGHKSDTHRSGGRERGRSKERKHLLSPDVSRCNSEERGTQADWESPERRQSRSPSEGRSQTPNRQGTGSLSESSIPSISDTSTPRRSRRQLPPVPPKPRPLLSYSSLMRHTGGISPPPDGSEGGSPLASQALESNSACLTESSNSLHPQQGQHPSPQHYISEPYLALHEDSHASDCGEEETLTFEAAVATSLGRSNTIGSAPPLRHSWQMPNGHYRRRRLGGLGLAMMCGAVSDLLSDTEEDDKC
Chain of GST-Syn-3 (cytoplasmic domain a.a. 1–263) (Q08849 1-263): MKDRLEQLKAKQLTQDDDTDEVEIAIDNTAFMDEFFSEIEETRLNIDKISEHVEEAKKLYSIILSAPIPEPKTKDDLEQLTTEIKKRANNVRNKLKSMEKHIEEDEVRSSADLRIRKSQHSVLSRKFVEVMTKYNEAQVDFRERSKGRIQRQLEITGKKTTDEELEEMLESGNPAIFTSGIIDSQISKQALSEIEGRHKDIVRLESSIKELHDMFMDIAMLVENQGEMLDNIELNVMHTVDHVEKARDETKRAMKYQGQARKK
Chain of Syn-3 expressed in HEK293 cells (Q08849 whole entry): as the sequence (Q08849 whole entry) above
Chain of Cav2.3 alpha1 pore-forming subunit (endogenous, INS-1 832/13 cells), Q07652 1-2222 (natural protein) (Q07652 whole entry): as the sequence (Q07652 whole entry) above

Substance: Cav1.3 alpha1 subunit expressed in HEK293 cells, P27732 1-2203 (natural protein)
percent recovery of total lysate input [1]: 25.7%
percent recovery of total lysate input [2]: 5.3%
percent recovery of total lysate input [3]: 7.8%
percent recovery of total lysate input [4]: 18.1%

Substance: Cav1.3 alpha1 pore-forming subunit (endogenous, INS-1 832/13 cells), P27732 1-2203 (natural protein)
percent recovery of total lysate input, basal (0.8 mM glucose) [5]: 1.9 to 2%
percent recovery of total lysate input, stimulated (16.7 mM glucose + 10 nM GLP-1) [5]: 2%
percent recovery of total lysate input, basal (0.8 mM glucose) [6]: 1.9%
percent recovery of total lysate input, stimulated (16.7 mM glucose + 10 nM GLP-1) [6]: 15%

Substance: Cav2.3 alpha1 subunit expressed in HEK293 cells, Q07652 1-2222 (natural protein)
percent recovery of total lysate input [1]: 8.4%
percent recovery of total lysate input [2]: 20.1%
percent recovery of total lysate input [3]: 6.1%
percent recovery of total lysate input [4]: 2.2%

percent recovery of total lysate input, basal (0.8 mM glucose) [5]: 1.7%
percent recovery of total lysate input, stimulated (16.7 mM glucose + 10 nM GLP-1) [5]: 8.1%
Substance: Cav2.3 alpha1 pore-forming subunit (endogenous, INS-1 832/13 cells), Q07652 1-2222 (natural protein)
